Test results: article PMC3998876

Molecular target: biotinylated mouse Izumo1Cd4d3+4 (entire ectodomain, bait form) (mouse) (UniProt Q9D9J7)
Assay: SPR

Sequence of UniProt Q9D9J7 (Q9D9J7 22-319): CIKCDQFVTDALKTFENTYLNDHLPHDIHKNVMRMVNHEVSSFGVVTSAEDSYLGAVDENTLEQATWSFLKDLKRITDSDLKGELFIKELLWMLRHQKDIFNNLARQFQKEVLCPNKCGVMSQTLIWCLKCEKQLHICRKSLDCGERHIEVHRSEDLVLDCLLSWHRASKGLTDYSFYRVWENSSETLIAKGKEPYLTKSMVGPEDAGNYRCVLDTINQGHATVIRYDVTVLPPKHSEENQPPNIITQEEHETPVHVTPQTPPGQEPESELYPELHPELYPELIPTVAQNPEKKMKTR

Kd: 12 µM
Substance: mouse JunoCd4d3+4-6His (purified soluble Juno ectodomain) (from UniProt Q9EQF4 20-222) (domain or fragment)
